The nature of the series: soluble fraction after stress (log2 fold change); higher = more stays soluble; pooled small domains, quantitative proteomics. Particulars: stress: pH 4. The procedure, abridged: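 Custom libraries of small protein domains were pooled and measured with high-throughput quantitative proteomics after pH 4 stress. The read-out is the fold change in the amount of each domain that stays soluble after the acid stress, taken as a measure of aggregation propensity. Fold changes are on a log2 scale, and higher values mean more of the domain stayed soluble.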
Consider “HMSKQKRIKYFLSILNIKSIKQFRKKDLDYFYQKRFIEIQKSSKDKKLVSNQLIELNAAKEYLDEIDFEN”, for which the “soluble fraction (log2)” value was 0.295. Then “HMSKQQVRSILDDIPNIGETRRKALMRQFQSLEKIREASVGQLREVDGMNEKAAQSVYQFFHK”, with 0.108; and “HMSKQVDVVIYILENTKAADNTYIGTYRKTADGAGVSLDTATKVMRKLQENNFIKKVQNGVYQISPLIMM”, with -0.519; and “HMSKRDDLLDQASEWLAKLDRDLTVVEERELKAWLGESAAHRETFIQMAKLWDKMESLSRLTDL”, with -1.06.

As for “HMSKSVEQRRQQIVAWVKEHGQSQVEDLAVRFATSEVTIRKDLAALSQQGLLIRQFGGAVPVPA”, the “soluble fraction (log2)” value amounted to 0.119.

“HMSKTQYTFKEVGSQFQLFAPSTKHTIMISADHPKYGWLTNQDQGRVINVYDTGKMTSSQDYYGLYKEVT”: the “soluble fraction (log2)” value was -0.589. Next, “HMSKTQYTFREVGSQFELHAPSTNHKIMVDANHPKYGWLSSQEAGRVINVYESGKMTSSQDYYGLYKQS”: -0.427.

For “HMSLANTSVKEMLNDLVKNEEPSKPLSDEALVKIFKEKGVKIARRTVAKYRAELNILPSHLRRT”, the “soluble fraction (log2)” value is -0.116.

Take “HMSLAVFLQGLLEEKQLKKADVIRRTGMEPTYGYHIFDGHKKHPARSKVLLLALAMGLTVKEAQHLLYYAG”: the “soluble fraction (log2)” value is -0.544. With “HMSLDAAAVASKLIKRLSKSPGRRFALDDLAVDVGLPHEQGRPLVRSALELLVRTQQAVEGPPNVFRLFF”, the “soluble fraction (log2)” value was -0.17. Regarding “HMSLEDMILSLSSRIRRGESLHFRELLVAIETKSGMVTIFMAVLELLKQQVMEMRYEDDDIIFT”, the “soluble fraction (log2)” value is -0.567. Then “HMSLEEIPLEERLGPGGLDPVAVYDSLPREMRDAFDSGSVSALREFVNALPAEDAARHMKAMVDSGLWVPT”, with -0.794; and “HMSLETRRYQLPRTDAQTASGLLRSLSGLPGVREVNLSGEGVAYLKVDSKGFDEQNVIKLLAGE”, with -0.0727; and “HMSLHSITIPQEFIGAVIGPGGKVIQEIQKQTGTTITITEKDNKGYVDIFGEDKGALDSALARIKEIVAIP”, with -0.277.

Turning to “HMSLIDYLNELMNEKNITVAQVAKNSGIGEYVYKIFNGERNAKRDTLVAISFGMHLNFEETQLLLRIA”, the “soluble fraction (log2)” value was -0.98. For the sequence “HMSLPALALRQADSLAFKQVIYHDRVVPFNTLARDFVLKLTGKPSYGGMTPEQVVGGWLLRPEVWQNEPM”, the “soluble fraction (log2)” value came out at 0.00403. Then “HMSLPAYIKISEVIARRINAGQILAGDRLPNERTMAVEFGVAVGTLRKALYHLQVRGLVTRKHGSGNYINK”, with 0.249; and “HMSLPKIVVPTDVTVSQLAKYLEVDAISIIKQLFGMGVVASLNQRLEDEIIQLIGNEFGKEIIFSE”, with -0.107; and “HMSLPQSKDAVITILRTLPQLDTRAPEVYKLLGPHALDIILEDPEQVAKKINHVGVATAKLWQQALLGFK”, with 0.198. Next, “HMSLQDYYQVLGVFYNAGDKEIKRRWKELINQYHPDLAQAKGASPEEIENYTLKMAEINNAYEQIMKSRKA”: 0.0253; “HMSLSASELDQLRMMTKVSHMYHTRGMVQIDIARSLGLSQARVSRLLSAAEDANIVRTVVVA”: -0.177.

For “HMSLTAQVFTDRGKVLLSENKFTEAIDQFTKALAMDKVYIEALNRRIEAYQHLGLTELAAKDEALLGTL”, the “soluble fraction (log2)” value is -1.01. In the case of “HMSLTPSQDANRSAILDAARDLFARYGFKKTTMEDIAMALRKGKSSLYYYFKNKEDIFQAVIDS”, the “soluble fraction (log2)” value was -0.0869.

Turning to “HMSMDAVSLANRLLRFFQKRPGRKFTAADLAFETGMNERTGKSLVTSALEILSRTNQIEADGDGFRLKM”, the “soluble fraction (log2)” value amounted to 0.243.

In the case of “HMSMEIQEIIRQLREKNDWSQEDMAERVGLSKNGYAKIERGETNLNLERLEQIANLFDLSVIDLIEMS”, the “soluble fraction (log2)” value was -1.03.

Regarding “HMSMEKNWVPSEDVIEILTRAGMNENFIRELIPEFIIYWSERKDVLISYDSKFIEHARLKWAQHNAE”, the “soluble fraction (log2)” value stood at 0.0608. Take “HMSMFTPAQVAQTLTVPPSTLRRWAKRFAPFLSPQSGKKRTYTVADLDTFQRIKELSAQGYTFAQIDQAL”: the “soluble fraction (log2)” value is -0.101.

For “HMSMLSQERQSLILDIIKEQGSVTVTRLTEILQSSESTVRRDLSYLASKGKINKVHGGATALG”, the “soluble fraction (log2)” value was -0.306. Then “HMSMNGNMIHATVIWKGRYFLVKMFFPQLTKPKRAEVQAQIEKAYPGSRVASYHITDYKPGEQFLHV”, with -0.156; and “HMSMPEVLSDRELEIFRMIGTGMSTGDIAKKLNISVNTIESHRKKIKDKLGIQKGSELVKAAVQWVSTQQ”, with -0.219. In the case of “HMSMSVLFSELDQKDAGVIVEKLKERKIPYELQSGGSAIMVPANVLHETRLQLAAEGLPQSS”, the “soluble fraction (log2)” value stood at 0.0876.

For “HMSMTVHGALRLLQLPTIADRPYTLKEIREAYREQAQNHHPDAGGSADAMRRLNEAYQFLKERYRQA”, the “soluble fraction (log2)” value is -0.0331.

“HMSNEKVVKFAQELLVDEERSAISPALISAKIDQVLMFKPAWNEGLDRDAVVNELVRRFSIW”: the “soluble fraction (log2)” value is -1.19. Then “HMSNGFFELKTSQQDELIDLIDSHTNFVRTKIEGELITAFLKLPMDAEEFNKLLFTNGIILSHLVKRK”, with -1.07; and “HMSNIIGNTAYSAIPDKQYFRLKSETAEKVANYLTENNIPFSGRINGDKTTLTIGQKNVDDYKAAVATVTG”, with 0.304; and “HMSNIVNYEVYVYQNDAWDLLARYPSEKRAEAIEYAKSTEFSLNRPTKVIRETYDLDTQKFQEALIYLSE”, with -0.304.

As for “HMSNLNHSFQYKKNIGRKISLTYLGRDNESISKIYELIDSNDSGILVKNKNVEIFIHYEKIVSAKIKVS”, the “soluble fraction (log2)” value was -0.213. Then “HMSNLTDLVSAKEAEVYLHFLESGSTAGMTEAELRAVRKIEELIQSNKIDYNGILRIRNETVK”, with -0.137; and “HMSNNLAYSQFLDRVKNKEIRKVEIRGQSIVGYTSNNETFKTYAPLNDPKMYDELLTNDVQVQVDPP”, with 0.0357. Next, “HMSNQLAVPDVTNMKANAAADRLRQQGLRVELKTESSNTVPRGMAIRTDPAASTMVARGGRVTLIISSGKG”: -0.0724; “HMSNSGFVKNNGKTEFYDASGRQAKSSWINISGKWYYFDLNGTMVTGWQRISNKWYYFLEDGSK”: 0.342. “HMSNSMISKDKAMSIALAKVSGATSSNIYIELEKDDGRYTYEGEINFNNKEYEFEIDAYTGNILKWEVDSI”: the “soluble fraction (log2)” value is -0.0257. Consider “HMSNTPHSREVLLEMDAVRRLLAVGEEKGEVDRADLQGAFEEAELGRGDLDGVLSILREYDVPLAR”, for which the “soluble fraction (log2)” value is -0.15. As for “HMSNVIYFNYNDYKFLFMGDAGVDKETDILEKYTLSNIDFLKVGHHGSDTSSNKGFIDSIQPKYSLIS”, the “soluble fraction (log2)” value is -1.42. Next, “HMSNWTILIIQGSAHLIDLDSKITEIDGFGSFPTKILQDYNLNEEFEIFDTNVKMVNSVQSDLQSN”: -1.97; “HMSNYIVELSSSEKIDDIDNNNNLINSFFSKSDSQWEYKLVFKNKNEMDVFVKKISTNNKIISYKTSS”: -0.106.

Take “HMSPAETGIYHILVENGKPNRHGLDATNKNENWLRQFLITQNTRLEDVFLLLADDGGGIRFFKSQ”: the “soluble fraction (log2)” value was -0.658. Next, “HMSPAPVSVDHLAFPTRDLEATDHFYSKVVGATLVHAESGYSPSWKSDYLLITYALPDGTRLSFFDWP”: -0.133; “HMSPDTREAILAAARTAFARDGYQTSLRGIARDAGVDPALVHHYFPDRATLFAKAVIESTAG”: -0.047; “HMSPFAHHLHELRMRHGIRQNELAELIGYDQTYISALEVGLKGPPTPEFVDKLVEGLALSRTEEAALRSAA”: -0.562. In the case of “HMSPFYALDEVDSFLDGVNVERLAALIARQAEQAQFLVVSHRRPMIGASTRTIGVTQARGAHTQVVGLP”, the “soluble fraction (log2)” value was -0.872. Consider “HMSPGAKIEVTGNTVNLRAGPGTNYDTRGQVKKGEQLPLLGEQGGWYRVQTSRGVAYLAGWLARVLT”, for which the “soluble fraction (log2)” value is -0.0378.

Take “HMSPLDSHLGRRIALRRQQLNTSAADLEKAISMVPGSVARFEAGRQSLNATQLFTLSRALDVPVLYFFEG”: the “soluble fraction (log2)” value was -0.418. As for “HMSPREDQQSRKQHILEAAAVLFAERGYYKTTTADVARAVGVTQPYVFHFFKSKEELYLAVL”, the “soluble fraction (log2)” value was determined as 0.219. Regarding “HMSPSDLSAEAQKVYALLDGRELSFDTLVEESGFDTGSLLAILMRLEMKMLVEHGADQVYRRSG”, the “soluble fraction (log2)” value is -0.98. Turning to “HMSPVKAPLPGVVLDIHVSVGQEVKASDTVVTLEAMKMENAIKAGVDGKVASISVGKGDSVLEGAVLLTI”, the “soluble fraction (log2)” value was 0.322.

Turning to “HMSQAVTMLKAGRLLANSKGTGAAVRDLEPGMLLYPTGQKDGTMWEVEDEMGNKGWVNSTSMQLA”, the “soluble fraction (log2)” value stood at 0.395. Turning to “HMSQDEKITNYIYEGNKNTQTEAFVEAEKSYRKALSLSPEKPEALYNLGNTHFLDKQYDEASQRFF”, the “soluble fraction (log2)” value was -0.111. As for “HMSQDINVFIKTNPENATIIWDGESKGTNGIFKSNAGAHRLRIEMQGYESIDQDIQVSDKQFSFEYNLKKE”, the “soluble fraction (log2)” value stood at 0.22. Then “HMSQIANLLLSKNIKVNNQNIIYYETVLKYLPNNEKKEFFINAMKNNIYFTEEEIKNFGNIFN”, with -0.786.

For “HMSQIQIKLDQAIMQLPEKQRFVFMLRYFEELPYEKIAQITETSIGGAKANFHQALKKMQEIIQ”, the “soluble fraction (log2)” value is -0.397. As for “HMSQKVQEDFLGDIRKNEIAVTVFLINGVKLQGVITWFDDASILLRRDGHTQLIYKHAVSTIMPGVAVDI”, the “soluble fraction (log2)” value is -0.632. Take “HMSQLYINATDDGWVIGNLPADAREVLLTTLGGQVVARYHVTAPSLRVKAPRKGVYIVSVETA”: the “soluble fraction (log2)” value was -0.0877.

Consider “HMSQQVVTDGVNLRLRYAPSPDAETYKWADGTNRHPEKGERFPYLGDIGDFYRIDYKGLVLYVSKQHTHL”, for which the “soluble fraction (log2)” value is -0.34.

Take “HMSQRITYTEFVQMVKDDKVEKVEVGANQYNITPKSDDKTLVKMTYYTGFIKDENLLDLLNKHKVEIDGYI”: the “soluble fraction (log2)” value is 0.169. Next, “HMSQSIGQEKALSIALADAGVQKENALGLEVKGEYDDGQLLYEVEFRAGGVEYEYEVRASDGRIVKAERD”: 0.0913; “HMSQSMEVLYTDLTDKDAAAIVEKLEEEKIPYQLEDQGTTILVPPGVKYTTRLKLAAEDLPKG”: 0.178; “HMSQYVPDPVLNAALVGYLDFRKQAGKPMTDYSIRLLLVDLAKLSGNPQEQAAILDQSTKNNWIGVYALG”: -0.326. Take “HMSRAARLALDALPDEWAQFAESRGLAGSAMAETWETFRDYWQAQPGQKGVKADWAATWRNWVRRETQNRG”: the “soluble fraction (log2)” value was -0.074.

(Values after the domain aggregation screens of Martell et al. (2025).)
